The values that follow come from patent EP4631959A2, “NOVEL MINIGASTRIN-DERIVED CHOLECYSTOKININ 2 RECEPTOR BINDING MOLECULES FOR IMAGING AND TARGETED RADIOTHERAPY” (priority 2022, dated 2024).

Molecules are shown by their SMILES. Starred links: 1 amine or outer side, 2 acyl side, 3 side chain; linkers in the order of their positions; H or OH if unused. Non-standard residues stand in square brackets, D forms with d. Residues, ends and D or L forms follow the SMILES beside them. *: point of attachment. X3 = CC(C)(C)[Si](F)(c1ccc(C(=O)NC[C@@H](NC(=O)CN2CCN(CC(=O)O)CCN(CC(=O)O)CCN(CC(=O)O)CC2)C(=O)*)cc1)C(C)(C)C; DOTA = O=C(O)CN1CCN(CC(=O)O)CCN(CC(=O)*)CCN(CC(=O)O)CC1; d(γGlu) = O=C(O)[C@@H](CCC(=O)[*:2])N[*:1]; 1Nal = N[C@@H](Cc1cccc2ccccc12)C(=O)O; NMeNle = CCCC[C@H](NC)C(=O)O; dOrn = NCCC[C@@H](N)C(=O)O; PEG3 = NCCOCCOCCOCCC(=O)O; Nle = CCCC[C@H](N)C(=O)O; AEEA = NCCOCCOCC(=O)O

Series [1] can be described thus: n-Octanol-PBS distribution coefficient (logD7.4). Type of series: physicochemical. The settings on record: pH = 7.4, ^177Lu-labeled. How it is done: Approximately 1 MBq of the labeled tracer was dissolved in 1 mL of a 1/1 mixture (v/v) of phosphate buffered saline (PBS, pH = 7.4) and n-octanol in an Eppendorf tube (1.5 mL). After vigorous mixing of the suspension for 3 min at rt, the vial was centrifuged at 9,000 rpm for 5 min (Biofuge 15, Heraeus Sepatech, Osterode, Germany) and 200 µL aliquots of both layers were measured in a γ-counter. The experiment was repeated at least five times.

The target of series [2] is T1, CCK-2R (Rattus norvegicus, UniProt P30553).
T1 construct: The CCK-2R expressing rat pancreatic tumor cells AR4-2J; host or cells: AR4-2J rat pancreatic tumor cells
T1 sequence (P30553 1-452): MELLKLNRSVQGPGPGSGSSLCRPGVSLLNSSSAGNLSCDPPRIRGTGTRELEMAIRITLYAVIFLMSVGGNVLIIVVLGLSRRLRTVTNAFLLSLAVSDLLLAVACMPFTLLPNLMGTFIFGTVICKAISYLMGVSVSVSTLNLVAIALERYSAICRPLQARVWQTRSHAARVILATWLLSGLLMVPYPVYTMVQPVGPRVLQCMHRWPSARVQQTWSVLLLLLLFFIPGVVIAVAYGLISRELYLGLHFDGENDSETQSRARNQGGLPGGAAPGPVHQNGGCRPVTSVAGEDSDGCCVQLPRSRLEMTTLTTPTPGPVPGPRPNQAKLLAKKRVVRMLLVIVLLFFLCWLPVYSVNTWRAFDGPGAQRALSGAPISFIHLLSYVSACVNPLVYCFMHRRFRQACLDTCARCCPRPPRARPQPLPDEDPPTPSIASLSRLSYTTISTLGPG
As to the kind of experiment: Determination of IC50: CCK-2R affinity on AR4-2J cells, competition with [^177Lu]Lu-DOTA-PP-F11N. Type of series: binding. The conditions noted are these: AR4-2J cells; ^natLu-labeled; read-out: IC50 [nM] (n = 3), ^natLu-labeled. How it is done:
AR4-2J cells were harvested 24 ± 2 h before the experiment and seeded in 24-well plates (2.0 × 10^5 cells in 1 mL/well). After removal of the nutrient medium (RPMI 1640, 5 mM L-Gln, 5 mL non-essential amino acids (100×), 10% FCS), the cells were washed once with 500 µL PBS. Thereafter, 200 µL nutrient medium (5% BSA, v/v) were added. Next, 25 µL per well of solutions containing either nutrient medium (5% BSA, v/v) as control or the respective compound in increasing concentration (10^-10 - 10^-4 M), were added with subsequent addition of 25 µL [^177Lu]Lu-DOTA-PP-F11N (0.3 pmol/well).
All experiments were performed in triplicate for each concentration. After 3 h incubation at 37 °C, the experiment was terminated by removal of the medium and consecutive rinsing with 300 µL PBS. The media of both steps were combined in one fraction and represent the amount of free radiolabeled reference. Afterwards, the cells were lysed with 300 µL of 1 M NaOH for at least 15 min and united with the 300 µL NaOH of the following washing step. Quantification of bound and free radiolabeled reference was accomplished in a γ-counter. IC50 determination for each conjugate was repeated twice.

What is called IC50 is the point on the concentration scale where inhibition reaches its midpoint. Consider `CCCC[C@@H](C(=O)N[C@@H](CC(=O)O)C(=O)N[C@@H](Cc1cccc2ccccc12)C(N)=O)N(C)C(=O)[C@H](Cc1c[nH]c2ccccc12)NC(=O)CNC(=O)[C@H](Cc1ccc(O)cc1)NC(=O)CNC(=O)CNC(=O)CN1CCN(CC(=O)O)CCN(CC(=O)O)CCN(CC(=O)O)CC1` [DOTA-CCK-56, DOTA-(Gly)2-Tyr-Gly-Trp-(N-Me)NIe-Asp-1-Nal-NH2] ({DOTA}-GGYGW[NMeNle]D[1Nal]-NH2), for which the “logD7.4 (n ≥ 5), ^177Lu-labeled” value in series [1] is listed as −1.38 ± 0.07. Besides, in series [2], the half-maximal inhibitory concentration (IC50) was 4.9 ± 0.8 nM. On to `CCCC[C@@H](C(=O)N[C@@H](CC(=O)O)C(=O)N[C@@H](Cc1cccc2ccccc12)C(N)=O)N(C)C(=O)[C@H](Cc1c[nH]c2ccccc12)NC(=O)CNC(=O)[C@H](Cc1ccc(O)cc1)NC(=O)[C@H](C)NC(=O)CNC(=O)CN1CCN(CC(=O)O)CCN(CC(=O)O)CCN(CC(=O)O)CC1` [DOTA-CCK-57, DOTA-Gly-Ala-Tyr-Gly-Trp-(N-Me)Nle-Asp-1-Nal-NH2] ({DOTA}-GAYGW[NMeNle]D[1Nal]-NH2), for which the “logD7.4 (n ≥ 5), ^177Lu-labeled” value in series [1] was −1.26 ± 0.08. Besides, the IC50 in series [2] turned out to be 5.6 ± 0.5 nM.

Regarding `CCCC[C@@H](C(=O)N[C@@H](CC(=O)O)C(=O)N[C@@H](Cc1cccc2ccccc12)C(N)=O)N(C)C(=O)[C@H](Cc1c[nH]c2ccccc12)NC(=O)CNC(=O)[C@H](Cc1ccc(O)cc1)NC(=O)CNC(=O)CC[C@@H](NC(=O)CN1CCN(CC(=O)O)CCN(CC(=O)O)CCN(CC(=O)O)CC1)C(=O)O` [DOTA-CCK-59, DOTA-γ-glu-Gly-Tyr-Gly-Trp-(N-Me)Nle-Asp-1-Nal-NH2] ({DOTA-d(γGlu)}-GYGW[NMeNle]D[1Nal]-NH2), the “logD7.4 (n ≥ 5), ^177Lu-labeled” value in series [1] is reported as −2.63 ± 0.05. Also, in series [2], the IC50 came out at 4.2 ± 0.5 nM. On to `CCCC[C@@H](C(=O)N[C@@H](CC(=O)O)C(=O)N[C@@H](Cc1cccc2ccccc12)C(N)=O)N(C)C(=O)[C@H](Cc1c[nH]c2ccccc12)NC(=O)CNC(=O)CNC(=O)[C@H](C)NC(=O)CC[C@@H](NC(=O)CN1CCN(CC(=O)O)CCN(CC(=O)O)CCN(CC(=O)O)CC1)C(=O)O` [DOTA-CCK-60, DOTA-γ-glu-Ala-(Gly)2-Trp-(N-Me)Nle-Asp-1-Nal-NH2] ({DOTA-d(γGlu)}-AGGW[NMeNle]D[1Nal]-NH2), for which the “logD7.4 (n ≥ 5), ^177Lu-labeled” value in series [1] is on record as −2.56 ± 0.09. Further, the IC50 in series [2] stood at 7.9 ± 0.43 nM.

As to `CCCC[C@@H](C(=O)N[C@@H](CC(=O)O)C(=O)N[C@@H](Cc1cccc2ccccc12)C(N)=O)N(C)C(=O)[C@H](Cc1c[nH]c2ccccc12)NC(=O)CNC(=O)CNC(=O)CNC(=O)CC[C@@H](NC(=O)CN1CCN(CC(=O)O)CCN(CC(=O)O)CCN(CC(=O)O)CC1)C(=O)O` [DOTA-CCK-62, DOTA-γ-glu-(Gly)3-Trp-(N-Me)Nle-Asp-1-Nal-NH2] ({DOTA-d(γGlu)}-GGGW[NMeNle]D[1Nal]-NH2), the “logD7.4 (n ≥ 5), ^177Lu-labeled” value in series [1] is given as −2.66 ± 0.06. Moreover, the IC50 in series [2] came out at 8.2 ± 1.3 nM. Consider `CCCC[C@@H](C(=O)N[C@@H](CC(=O)O)C(=O)N[C@@H](Cc1cccc2ccccc12)C(N)=O)N(C)C(=O)[C@H](Cc1c[nH]c2ccccc12)NC(=O)CCOCCOCCOCCNC(=O)CC[C@@H](NC(=O)CN1CCN(CC(=O)O)CCN(CC(=O)O)CCN(CC(=O)O)CC1)C(=O)O` [DOTA-CCK-63, DOTA-γ-glu-(PEG)2-Trp-(N-Me)Nle-Asp-1-Nal-NH2] ({DOTA-d(γGlu)-PEG3}-W[NMeNle]D[1Nal]-NH2), for which the “logD7.4 (n ≥ 5), ^177Lu-labeled” value in series [1] is reported as −3.03 ± 0.09; in series [1] (listed as [^177Lu]Lu-DOTA-CCK-63) it was under -3. The IC50 in series [2] turned out to be 4.8 ± 1.1 nM. Consider `CCCC[C@@H](C(=O)N[C@@H](CC(=O)O)C(=O)N[C@@H](Cc1cccc2ccccc12)C(N)=O)N(C)C(=O)[C@H](Cc1c[nH]c2ccccc12)NC(=O)COCCOCCNC(=O)CC[C@@H](NC(=O)CN1CCN(CC(=O)O)CCN(CC(=O)O)CCN(CC(=O)O)CC1)C(=O)O` [DOTA-CCK-77, DOTA-γ-glu-PEG-Trp-(N-Me)Nle-Asp-1-Nal-NH2] ({DOTA-d(γGlu)-AEEA}-W[NMeNle]D[1Nal]-NH2), for which the “logD7.4 (n ≥ 5), ^177Lu-labeled” value is −3.09 ± 0.06 in series [1] and under -3 in series [1] (listed as [^177Lu]Lu-DOTA-CCK-77). On to `CCCC[C@H](NC(=O)[C@H](Cc1c[nH]c2ccccc12)NC(=O)CNC(=O)[C@H](Cc1ccc(O)cc1)NC(=O)[C@H](C)NC(=O)CC[C@@H](NC(=O)CC[C@@H](NC(=O)CC[C@@H](NC(=O)CC[C@@H](NC(=O)CC[C@@H](NC(=O)[C@H](N)CCCNC(=O)[C@@H](CNC(=O)c1ccc([Si](F)(C(C)(C)C)C(C)(C)C)cc1)NC(=O)CN1CCN(CC(=O)O)CCN(CC(=O)O)CCN(CC(=O)O)CC1)C(=O)O)C(=O)O)C(=O)O)C(=O)O)C(=O)O)C(=O)N[C@@H](CC(=O)O)C(=O)N[C@@H](Cc1ccccc1)C(N)=O` [DOTA-MG-SiFA-27, DOTA-dap(SiFA)-γ-orn-(γ-glu)5-F11N] (H-[dOrn](X3)[d(γGlu)][d(γGlu)][d(γGlu)][d(γGlu)][d(γGlu)]AYGW[Nle]DF-NH2), for which the “logD7.4 (n ≥ 5), ^177Lu-labeled” value in series [1] is −1.90 ± 0.10. Same read-out and setting: with `CCCC[C@H](NC(=O)[C@H](Cc1c[nH]c2ccccc12)NC(=O)CNC(=O)[C@H](Cc1ccc(O)cc1)NC(=O)[C@H](C)NC(=O)CC[C@@H](NC(=O)CC[C@@H](NC(=O)CC[C@@H](NC(=O)CC[C@@H](NC(=O)CC[C@@H](NC(=O)CC[C@@H](NC(=O)CC[C@@H](NC(=O)[C@H](N)CCCNC(=O)[C@@H](CNC(=O)c1ccc([Si](F)(C(C)(C)C)C(C)(C)C)cc1)NC(=O)CN1CCN(CC(=O)O)CCN(CC(=O)O)CCN(CC(=O)O)CC1)C(=O)O)C(=O)O)C(=O)O)C(=O)O)C(=O)O)C(=O)O)C(=O)O)C(=O)N[C@@H](CC(=O)O)C(=O)N[C@@H](Cc1ccccc1)C(N)=O` [DOTA-MG-SiFA-28, DOTA-dap(SiFA)-γ-orn-(γ-glu)7-F11N] the figure was −1.81 ± 0.10; with `CCCC[C@H](NC(=O)[C@H](Cc1c[nH]c2ccccc12)NC(=O)CNC(=O)[C@H](Cc1ccc(O)cc1)NC(=O)[C@H](C)NC(=O)CC[C@@H](NC(=O)CC[C@@H](NC(=O)CC[C@@H](NC(=O)CC[C@@H](NC(=O)CC[C@@H](NC(=O)CC[C@@H](NC(=O)CC[C@@H](NC(=O)[C@H](N)CCCCNC(=O)[C@@H](CNC(=O)c1ccc([Si](F)(C(C)(C)C)C(C)(C)C)cc1)NC(=O)CN1CCN(CC(=O)O)CCN(CC(=O)O)CCN(CC(=O)O)CC1)C(=O)O)C(=O)O)C(=O)O)C(=O)O)C(=O)O)C(=O)O)C(=O)O)C(=O)N[C@@H](CC(=O)O)C(=O)N[C@@H](Cc1ccccc1)C(N)=O` [DOTA-MG-SiFA-30, DOTA-dap(SiFA)-γ-lys-(γ-glu)7-F11N], −1.74 ± 0.03; with `CCCC[C@H](NC(=O)[C@H](Cc1c[nH]c2ccccc12)NC(=O)CNC(=O)[C@H](Cc1ccc(O)cc1)NC(=O)[C@H](C)NC(=O)CC[C@@H](NC(=O)CC[C@@H](NC(=O)CC[C@@H](NC(=O)CC[C@@H](NC(=O)CC[C@@H](NC(=O)CC[C@@H](NC(=O)CC[C@@H](NC(=O)[C@H](N)CCCCNC(=O)[C@@H](CNC(=O)c1ccc([Si](F)(C(C)(C)C)C(C)(C)C)cc1)NC(=O)[C@H](N)CCCCNC(=O)CN1CCN(CC(=O)O)CCN(CC(=O)O)CCN(CC(=O)O)CC1)C(=O)O)C(=O)O)C(=O)O)C(=O)O)C(=O)O)C(=O)O)C(=O)O)C(=O)N[C@@H](CC(=O)O)C(=O)N[C@@H](Cc1ccccc1)C(N)=O` [DOTA-MG-SiFA-31, DOTA-γ-lys-dap(SiFA)-γ-lys-(γ-glu)7-F11N], −1.88 ± 0.10.
